How the values were obtained:
[1] = system: Wnt-5a-induced Ca^2+ signaling; experiment: Determination of cytosolic free calcium levels (fura-2) in A2058 cells; type: cell-based, human; conditions: 0.1 μg/ml Wnt-5a
Description: Cells grown on a glass cover slip were incubated with 4 μM fura-2/AM in culture medium for 30 minutes at 37° C. (Dejmek et al., 2006). After fura-2 loading of the cells, the cover slips were washed and mounted in a specially designed chamber to which was added a calcium-containing medium (136 mM NaCl, 4.7 mM KCl, 1.2 mM MgSO4, 1.1 mM CaCl2, 1.2 KH2PO4, 5 mM NaHCO3, 5.5 mM glucose and 20 mM Hepes, pH 7.4). The chamber was then placed in a system consisting of a NIKON Diaphot microscope connected to a Photon Technology International (PTI) imaging system. The cells were first allowed to rest for 10 minutes before any stimulation was performed. Fura-2 fluorescence was then recorded continuously from the cells before and after the stimulations with either Wnt-5a, endothelin-1 or charbacol (as indicated in the legend to FIG. 8) using an excitation wavelength rapidly alternating between 340 and 380 nm, while the emission wavelength was set at 510 nm. The fluorescence intensity ratios (340/380 nm) were subsequently calculated and analyzed using the PTI Image Master Software. Statistical analysis—The Student's t-test for unpaired samples was used to analyze differences in the experiments, where *=p<0.05, **=p<0.01, and ***=p<0.001

[2] = system: A2058 melanoma cells; experiment: Wound-healing assay (migration), A2058 cells; type: cell-based, human; conditions: 0.2 μg/ml Wnt-5a, serum-free medium
Description: Cells were plated in 12 well plates and allowed to grow into a confluent layer in complete RPMI (for A2058 cells) or complete McCoy's 5A medium (for HTB63 cells). As indicated, cells were pre-incubated with the Box5 peptide (100 μM) or control solvent for 40 min with continuous agitation. A wound was then inflicted by making a scratch through the confluent layer of cells with a pipette tip. During the migration period of the assay, cells were incubated either in serum-free medium or in the case of HTB63 cells in their own serum-free-conditioned medium collected from cells cultured for 48 h and used within 2 days after collection. The exact conditions of each experiment are described above. To avoid loss of activity, cell medium was changed after 24 hours. A picture for each scratch was taken in the same area of cells at 0, 16, 24, 40 and 48 hours, and wound healing was measured as percentage of wound area closed. For each experimental condition wound healing was analysed in triplicate. All data were based on 3 to 8 separate experiments as indicated.

B1: Wnt-5a: human recombinant Wnt-5a protein from R&D Systems (protein, UniProt P41221 62-380, looked up)
Protein Wnt-5a: IIGAQPLCSQLAGLSQGQKKLCHLYQDHMQYIGEGAKTGIKECQYQFRHRRWNCSTVDNTSVFGRVMQIGSRETAFTYAVSAAGVVNAMSRACREGELSTCGCSRAARPKDLPRDWLWGGCGDNIDYGYRFAKEFVDARERERIHAKGSYESARILMNLHNNEAGRRTVYNLADVACKCHGVSGSCSLKTCWLQLADFRKVGDALKEKYDSAAAMRLNSRGKLVQVNSRFNSPTTQDLVYIDPSPDYCVRNESTGSLGTQGRLCNKTSEGMDGCELMCCGRGYDQFKTVQTERCHCKFHWCCYVKCKKCTEIVDQFVCK
Cytosolic Ca^2+ signal in A2058 cells [1]: triggers a rapid cytosolic Ca^2+ signal
Effect on migration of A2058 cells [2]: increased

Source: patent US8497352B2, “Use of Wnt5-α peptide derivates for the treatment of melanoma and gastric cancer” (Wntresearch AB, priority 2008, dated 2013)
